Data set [1] deals with T1, hSSB2 (C-terminally His-tagged) (Homo sapiens, UniProt Q96AH0 1-204). The experiment in a line: fluorescence anisotropy; no MgCl2; Hill n 1.1; Anisotropy: standard LLPS buffer without MgCl2 (50 mM KCl standard), 25 C, 10 nM probe; EMSA: standard LLPS buffer (50 mM KCl, 10 mM MgCl2), 50 nM probe, 1% agarose; buffer species and pH not in the material. The conditions noted are these: protein: recombinant; tags: C-terminal His; label: 3'-fluorescein; single strand. (In general: Polarisation of emitted light reports the rotation of a fluorescent probe.)
T1 sequence (Q96AH0 whole entry): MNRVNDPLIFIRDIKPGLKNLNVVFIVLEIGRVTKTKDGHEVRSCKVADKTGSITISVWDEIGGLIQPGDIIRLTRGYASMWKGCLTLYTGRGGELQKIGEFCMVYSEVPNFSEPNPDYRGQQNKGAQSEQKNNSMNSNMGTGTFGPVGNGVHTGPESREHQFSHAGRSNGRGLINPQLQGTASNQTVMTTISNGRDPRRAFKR

In data set [2] the target is hSSB2-dIDR (Homo sapiens, UniProt Q96AH0 1-100). The experiment in a line: fluorescence anisotropy; no MgCl2; Hill n 2.4; Anisotropy: standard LLPS buffer without MgCl2 (50 mM KCl standard), 25 C, 10 nM probe; EMSA: standard LLPS buffer (50 mM KCl, 10 mM MgCl2), 50 nM probe, 1% agarose; buffer species and pH not in the material. The note with it: protein: recombinant; tags: His (terminus not clearly stated); label: 3'-fluorescein; single strand.
Sequence of hSSB2-dIDR (Q96AH0 1-100): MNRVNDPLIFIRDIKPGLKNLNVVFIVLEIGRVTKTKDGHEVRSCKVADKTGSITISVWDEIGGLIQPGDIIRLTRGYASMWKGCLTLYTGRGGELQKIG

In data set [3] the target is T1, hSSB2 (C-terminally His-tagged). The experiment in a line: fluorescence anisotropy; no MgCl2; Hill n 3.3; Anisotropy: standard LLPS buffer without MgCl2 (50 mM KCl standard), 25 C, 10 nM probe; EMSA: standard LLPS buffer (50 mM KCl, 10 mM MgCl2), 50 nM probe, 1% agarose; buffer species and pH not in the material. The note with it: protein: recombinant; tags: C-terminal His; label: 3'-fluorescein; single strand.

Data set [4] shares this target. The experiment in a line: fluorescence anisotropy; no MgCl2; Hill n 2.7; Anisotropy: standard LLPS buffer without MgCl2 (50 mM KCl standard), 25 C, 10 nM probe; EMSA: standard LLPS buffer (50 mM KCl, 10 mM MgCl2), 50 nM probe, 1% agarose; buffer species and pH not in the material. The conditions noted are these: protein: recombinant; tags: C-terminal His; label: 3'-fluorescein; single strand.

Broadly, the Kd is the concentration at which binding is half-saturated.

B1: ss54 DNA (ssDNA)
DNA: TCCTTTTGATAAGAGGTCATTTTTGCGGATGGCTTAGAGCTTAATTGCGCAACG
Consider B1, for which the equilibrium dissociation constant (Kd) was found to be 87 ± 7 nM in data set [1] and 850 ± 20 nM in data set [2].

Regarding AUUUUUGCGGAUGGCUUAGAGCUUAAUUGCGCAACG (ssRNA) [ss36 RNA], the dissociation constant Kd in data set [3] is 870 ± 170 nM.

With ATTTTTGCGGATGGCTTAGAGCTTAATTGCGCAACG (ssDNA) [ss36 DNA], in data set [4], the dissociation constant Kd came out at 530 ± 20 nM.

For the origin of these results see publication PMC10955726, “DNA‐dependent phase separation by human SSB2 (NABP1/OBFC2A) protein points to adaptations to eukaryotic genome repair processes”.
